This experiment deals with AP2-μ2 (plasmid-encoded: μ2-HA; μ2-myc in AP2 core and hemicomplex) (UniProt P84092). As to the kind of experiment: anti-FLAG co-IP, Western blot. The conditions noted are these: reference: wild type; sites S31,S32.

As for “HPV-16 E7 (from UniProt P03129) S31A/S32A”, the “binding against the reference” value is reported as “weaker”.

The record behind these values is publication PMC9765456.
